From patent US20240279618A1, “RECEPTOR TYROSINE KINASE AGONIST, COMPOSITION FOR CELL CULTURE MEDIUM, AND […] MAINTENANCE COMPOSITION” (SEKISUI CHEMICAL CO., LTD., priority 2021, published 2024)

B1: #1-L4-#1: dimer of VHH #1 with linker L4 (GSEGKSSGSGSESKST), SEQ ID NO: 23 (protein)
VHH: QLQLVESGGGSVQAGGSLRLSCAASRSLSRFNVWTWYRQAPVKQRELVASITKSGDTNYAESVKGRFIISRDDDKNTVYLQMNNLKSEDTGIYYCAGSYYSGSYLYPSPGGFSVWGQGTQVTVSSGSEGKSSGSGSESKSTQLQLVESGGGSVQAGGSLRLSCAASRSLSRFNVWTWYRQAPVKQRELVASITKSGDTNYAESVKGRFIISRDDDKNTVYLQMNNLKSEDTGIYYCAGSYYSGSYLYPSPGGFSVWGQGTQVTVSS
modifications: #1-L4-#1

What was measured:
Format in all cases: cell-based
[1] = system: NIH3T3 (mouse fibroblast cell line); assay: Inhibition of growth factor activity of VHH homodimer by FGFR antagonist; details: 10 or 100 ng/mL test substance, 20 nM NVP-BGJ398
Protocol: The cell growth assay for FGF2 was performed according to the following procedure. On Day 1, a suspension including 2.5×10^4 cells/mL of NIH3T3 in DMEM of 10% CS and PS(+) was created, seeded on a CulturPlate-96 (White Opaque 96-well Microplate, manufactured by Perkin Elmer, Cat #6005680) at 100 μL/well, and cultured in a 5% CO2 incubator at 37° C. for 16 to 24 hours. On Day 2, the medium was replaced with FGF2 (PeproTech Cat #AF-100-18B) or serum-free PS(+) DMEM including various test substances, and the cells were further cultured for 2 days. On Day 4, the 96-well plate was left at room temperature for 30 minutes, and then 100 μL of Cell Titer Glo 2.0 Reagent (manufactured by Promega Corporation) at room temperature was added to each well, followed by stirring at 500 rpm for 2 minutes using a plate mixer. The plate was further left to stand for 8 minutes, and then the luminescence in each well was measured with a Synergy HTX plate reader (manufactured by BioTek) with a sensitivity set (Gain) of 200 and a measurement time of 1 s/well.
The addition amounts of FGF2 and #1L4 (hereinafter also referred to as “#1-L4-#1”), which is a dimer of VHH #1 with a linker […], were each 10 or 100 ng/mL.

[2] = system: human bone marrow-derived MSC; assay: MSC culture: evaluation of MSC markers by flow cytometry; details: MSC fourth passage, 10% or 20% FBS; for CD90-expressing (positive) cells: over the concentrations tested
Protocol: On Day 5 after the initial seeding, D-PBS was added to the cells and removed by suction. 500 μL of TrypLE Express was added to each well and the mixture was left to stand in a CO2 incubator for 5 to 10 minutes. The cells were observed under a microscope, and in a case where it was possible to confirm that the cells had changed in morphology, a medium was added thereto, and the cells were recovered in a PP tube by pipetting, and centrifuged (300× g, 5 minutes). After the centrifugation, the supernatant was removed by suction, an appropriate amount of 1% BSA/PBS was added to the pellet, and the mixture was pipetted to form a suspension.
A part of the suspension was collected and the number of cells was evaluated with a cell counter. Dilution was performed with 1% of BSA/PBS, so that the concentration was 0.6 to 1.0× 10^6 cells/mL. 50 μL of the mixture was dispensed into a 2 mL tube, so that the concentration was 3 to 5×10^4 cells/tube.
Equal amounts of the suspension subjected to the cell counter and the antibody solution adjusted above were mixed, and the mixture was left to stand on ice for 30 minutes or longer with light shielded. 1% of BSA/PBS was added thereto, the mixture was centrifuged (400 to 600×g, 5 minutes), and then the supernatant was removed by suction. Then, 300 to 500 μL of 1% BSA/PBS was added thereto, and the pipetted sample was subjected to flow cytometric analysis using an Attune NxT Flow Cytometer (Thermo Fisher Scientific, Inc.).

[3] = system: mouse fibroblast cell line NIH/3T3; assay: Solution preservation stability of bFGF and VHH homodimer, read out by fibroblast growth; details: 0.5 mg/mL in D-PBS, fibroblast growth on second day
Protocol: bFGF and the VHH homodimer (SEQ ID NO: 23, sequence name: #1-LA-#1, sometimes referred to as a single-domain antibody) was mixed with a D-PBS solution (Fujifilm Wako Pure Chemical Corporation) so that the concentration was 0.5 mg/mL, and incubation was performed at 37° C. for 1 week. Then, the growth promoting abilities for fibroblast growth of four test subjects, which are an incubated VHH homodimer, a pre-incubated bFGF, a VHH homodimer after thawing from freeze-preservation, and bFGF immediately after solutionizing with D-PBS from a freeze-dried product, were evaluated. As a negative control, culture without any of the bFGF and the VHH homodimer was also performed at the same time. The culture conditions were the same as those in Item 1 and Item 2 of the present Example, and the cell growth was evaluated by the number of cells on the second day after the start of culture.

[4] = system: mouse fibroblast cell line NIH/3T3; assay: Inhibition of growth factor activity of VHH homodimer by FGFR inhibitor (fibroblasts); details: 10 and 100 ng/ml test substance plus FGFR kinase inhibitor
Excerpt: Promotion of Fibroblast Growth by VHH (Homodimer)” described above.
It was examined whether the cell growth activities of bFGF and the single-domain antibody were inhibited by NPV-BGJ398 which is an FGFR kinase inhibitor.

[5] = system: human bone marrow-derived MSC; assay: MSC: evaluation of fat differentiation induction (Oil Red O); details: MSC after 3-passage subculture with 20 ng/ml additive, 14 days induction
Protocol: A third passage was performed in a CellBIND(R) 24-well transparent multi-well plate (Corning, C/N: 3337), and then at a time of reaching 80% to 90% confluence, medium exchange was performed in MesenCult Stem Cell Adipogenic Differentiation Medium (PromoCell, C/N: C-28016) which is a medium for differentiation induction. Furthermore, for the cells as a negative control, D-MEM (10% FBS or 20% FBS) was used for the medium exchange. The medium exchange was carried out every 2 to 4 days.
After 14 days from seeding, a 4% paraformaldehyde/phosphate buffer solution was added thereto at 500 μL/well, and the cells were left to stand for 2 hours or longer. After the immobilization, purified water was added thereto at 500 μL/well. An Oil Red stock liquid (Cosmo Bio Co., Ltd., C/N: AK09F) and purified water were mixed at a ratio of 6:4, and the mixture was left to stand at room temperature for 10 to 15 minutes. Thereafter, the filtrate was filtered through a membrane filter having a pore size of 0.5 to 1.0 μm, and the filtrate was used as an Oil Red O liquid. 500 μL of the Oil Red O liquid was added to each well and the mixture was left to stand at room temperature for 15 minutes. […] 100 μL of the eluate was transferred to a 96-well plate and the absorbance at 520 nm was measured. […]

Molecule	cell growth activity with addition of NVP-BGJ398 [1]	CD90-expressing cells ([2]; "at ng/mL" (figure not given))	CD90-expressing (positive) cells [2]	cell growth activity after incubation at 37° C. for 1 week [3]	cell growth with addition of NPV-BGJ398 [4]	differentiation into the fat cell line (Oil Red O) [5]
FGF2: fibroblast growth factor (basic), human, recombinant (154aa), positive control; SEQ ID NO: 58 [reference compound]	inhibited	less than 95%	decreased in inverse proportion to the concentration	the same as that in the case of no addition	suppressed cell growth	Differentiation was similarly recognized
B1	inhibited	–	≥ 97%	exhibited the same cell growth activity as that of bFGF	suppressed cell growth	Differentiation was similarly recognized
